{"source": "patent US20020123056", "key": {"[1]": {"molecular_target": "T1, PKB-sub peptide (GSK3 consensus peptide) CKRPRAASFAE", "T1 chain": "CKRPRAASFAE"}, "[2]": {"molecular_target": "PDK1 peptide (PDKtide) …"}}, "data": [{"protein": "GST-SGK2 fusion protein (human SGK2 with N-terminal Glutathione S-transferase tag, expressed in Hi5 insect cells) (protein) MNSSPAGTPSPQPSRANGNINLGPSANPNAQPTDFDFLKVIGKGNYGKVLLAKRKSDGAFYAVKVLQKKSILKKKEQSHIMAERSVLLKNVRHPFLVGLRYSFQTPEKLYFVLDYVNGGELFFHLQRERRFLEPRARFYAAEVASAIGYLHSLNIIYRDLKPENILLDCQGHVVLTDFGLCKEGVEPEDTTSTFCGTPEYLAPEVLRKEPYDRAVDWWCLGAVLYEMLHGLPPFYSQDVSQMYENILHQPLQIPGGRTVAACDLLQSLLHKDQRQRLGSKADFLEIKNHVFFSPINWDDLYHKRLTPPFNPNVTGPADLKHFDPEFTQEAVSKSIGCTPDTVASSSGASSAFLGFSYAPEDDDILDC", "values": [{"measurement": "in vitro kinase assay, 32P incorporation into peptide (purified SGK2)", "setting": "[1]", "result": "PKB-sub had significant incorporation of ^32P"}, {"measurement": "in vitro kinase assay, PDK1-activated versus non-activated SGK2", "setting": "[1]", "result": "the PDK1 activated SGK2 had significantly higher kinase activity compared to non-activated SGK2"}, {"measurement": "in vitro kinase assay, 32P incorporation into peptide (purified SGK2)", "setting": "[2]", "result": "addition of same amount of control peptide (PDK1 peptide) had no significant incorporation"}]}]}
